Each block holds one molecule with its values, some of them ahead of it.
Columns and labels:
Ls7β-HSDH [1] = assay: NADH consumption at […] nm, Michaelis-Menten; type: biochemical, Levilactobacillus spicheri; settings: 0.5 mM NADH, 50 mM KPi pH 8.0, 10% methanol, 25 °C
Cs7β-HSDH [2] = molecular target: T1, Cs7β-HSDH (Clostridium sardiniense, UniProt G9FRD6); assay: NADPH formation at […] nm, fit with substrate inhibition; type: biochemical; settings: 1.0 mM UDCA, 50 mM KPi pH 8.0, 10% methanol, 25 °C
T1 sequence (G9FRD6 1-261): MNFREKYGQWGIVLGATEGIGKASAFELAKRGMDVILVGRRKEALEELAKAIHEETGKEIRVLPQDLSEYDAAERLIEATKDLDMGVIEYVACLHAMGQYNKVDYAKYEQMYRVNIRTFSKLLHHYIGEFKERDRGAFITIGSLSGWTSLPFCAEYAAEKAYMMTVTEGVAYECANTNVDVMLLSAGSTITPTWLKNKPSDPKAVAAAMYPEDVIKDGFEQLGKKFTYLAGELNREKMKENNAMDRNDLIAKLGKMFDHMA

Cs7β-HSDH [3] = molecular target: T1, Cs7β-HSDH; assay: as above; type: biochemical; settings: 2.0 mM NADP+, 50 mM KPi pH 8.0, 10% methanol, 25 °C
Ls7β-HSDH [4] = assay: NADH formation at […] nm, fit with substrate inhibition; type: biochemical, Levilactobacillus spicheri; settings: read-out: UDCA / K m / [mmol L^-1]; 2.0 mM NAD+, 50 mM KPi pH 8.0, 10% methanol, 25 °C
Ls7β-HSDH [5] = assay: as above; type: biochemical, Levilactobacillus spicheri; settings: 2.0 mM NAD+, 50 mM KPi pH 8.0, 10% methanol, 25 °C
purified protein [6] = substrate: C[C@H](CCC(=O)O)[C@H]1CC[C@H]2[C@@H]3C(=O)C[C@@H]4C[C@H](O)CC[C@]4(C)[C@H]3C[C@H](O)[C@]12C; assay: purified protein; settings: 0.5 mM NADPH, 50 mM KPi pH 8.0, 10% methanol, 25 °C
purified protein [7] = substrate: C[C@H](CCC(=O)O)[C@H]1CC[C@H]2[C@@H]3[C@@H](O)C[C@@H]4C[C@H](O)CC[C@]4(C)[C@H]3CC[C@]12C; assay: purified protein; settings: 2.0 mM NADP+, 50 mM KPi pH 8.0, 10% methanol, 25 °C
purified protein [8] = substrate: [H][C@]12CC(=O)[C@@]3([H])[C@]4([H])CC[C@H]([C@H](C)CCC(=O)O)[C@@]4(C)CC[C@]3([H])[C@@]1(C)CC[C@@H](O)C2; assay: purified protein; settings: 0.5 mM NADPH, 50 mM KPi pH 8.0, 10% methanol, 25 °C

Molecule: C[C@H](CCC(=O)O)[C@H]1CC[C@H]2[C@@H]3C(=O)C[C@@H]4C[C@H](O)CC[C@]4(C)[C@H]3CC[C@]12C [7-oxo-LCA]
Km (Ls7β-HSDH [1]; read-out: 7-oxo-LCA / K m / [mmol L^-1]): 38 ± 14 µM

NADP^+ / K i / (Cs7β-HSDH [2]): 10000 ± 3000 µM
Molecule: NC(=O)c1ccc[n+]([C@@H]2O[C@H](COP(=O)(O)OP(=O)(O)OC[C@H]3O[C@@H](n4cnc5c(N)ncnc54)[C@H](OP(=O)(O)O)[C@@H]3O)[C@@H](O)[C@H]2O)c1 [NADP^+]

UDCA / K i / (Cs7β-HSDH [3]): 1400 ± 300 µM
Km (Ls7β-HSDH [4]): 156 ± 51 µM
Molecule: C[C@H](CCC(=O)O)[C@H]1CC[C@H]2[C@@H]3[C@@H](O)C[C@@H]4C[C@H](O)CC[C@]4(C)[C@H]3CC[C@]12C [UDCA]
UDCA / K i / (Ls7β-HSDH [5]): 800 ± 300 µM

Km (Ls7β-HSDH [1]; read-out: 7-oxo-DCA / K m / [mmol L^-1]): 131 ± 28 µM
Molecule: C[C@H](CCC(=O)O)[C@H]1CC[C@H]2[C@@H]3C(=O)C[C@@H]4C[C@H](O)CC[C@]4(C)[C@H]3C[C@H](O)[C@]12C [7-oxo-DCA]

B1: Cs7β-HSDH (Clostridium sardiniense) (protein)
chain: T1 sequence (G9FRD6 1-261)
Km (purified protein [6]): 106 ± 5 µM
kcat (purified protein [6]): 2.27 ± 0.03 s⁻¹
kcat/Km (purified protein [6]): 21300 M⁻¹ s⁻¹
Km (purified protein [7]): 160 ± 30 µM
kcat (purified protein [7]): 3.61 ± 0.34 s⁻¹
kcat/Km (purified protein [7]): 22600 M⁻¹ s⁻¹
Km (purified protein [8]): 128 ± 27 µM
kcat (purified protein [8]): 1.37 s⁻¹
kcat/Km (purified protein [8]): 10700 M⁻¹ s⁻¹

From paper PMC6681466 (Chemsuschem, 2018)
